Measurements as given in patent US20040176301A1 (CYCLACEL, published 2004).
Like-named read-outs stand apart in the source and are kept apart here. Numbered stars: 1 amine (or outer) side, 2 acyl side, 3 side chain; on linkers, the order of the positions; unused ones are H or OH. Square brackets hold non-standard residues; d marks the D form. Ends that are not written are not given here. Dhp = dehydrophenylalanine, Z isomer, O=C(/C(=C/c1ccccc1)N[*:1])[*:2]; Phe(3R-OH) = O=C([C@@H](N[*:1])[C@H](O[*:3])c1ccccc1)[*:2]; 1Nal = N[C@@H](Cc1cccc2ccccc12)C(=O)O; Cha = N[C@@H](CC1CCCCC1)C(=O)O; Phe(ol) = N[C@H](CO)Cc1ccccc1; dPsa = D-O-acetylphenylserine; Psa = O-acetylphenylserine; Nle = CCCC[C@H](N)C(=O)O; Nva = CCC[C@H](N)C(=O)O; Abu = CC[C@H](N)C(=O)O; dPse = D-phenylserine

How the values were obtained:
Test in all cases: cell-based or functional assay
CDK2/cyclin A [1] = molecular target: T1, CDK2/cyclin A (UniProt P24941 1-298; P20248 1-432)
CDK2/cyclin A [2] = molecular target: T1, CDK2/cyclin A; remark: listed apart in the source
CDK4/Cyclin D1 complex [3] = molecular target: T2, CDK4/Cyclin D1 complex (UniProt P11802 1-303; P24385 1-295)
CDK2/Cyclin E complex [4] = molecular target: T3, CDK2/Cyclin E complex (UniProt P24941 1-298; P24864 1-410)
CDK2/cyclin A [5] = molecular target: T1, CDK2/cyclin A; remark: listed apart in the source
CDK4/Cyclin D1 complex [6] = molecular target: T2, CDK4/Cyclin D1 complex; remark: listed apart in the source
CDK2/Cyclin E complex [7] = molecular target: T3, CDK2/Cyclin E complex; remark: listed apart in the source

T2 sequence (P11802 other isoform, or with tags, fused parts or gaps, chain 1 of 2): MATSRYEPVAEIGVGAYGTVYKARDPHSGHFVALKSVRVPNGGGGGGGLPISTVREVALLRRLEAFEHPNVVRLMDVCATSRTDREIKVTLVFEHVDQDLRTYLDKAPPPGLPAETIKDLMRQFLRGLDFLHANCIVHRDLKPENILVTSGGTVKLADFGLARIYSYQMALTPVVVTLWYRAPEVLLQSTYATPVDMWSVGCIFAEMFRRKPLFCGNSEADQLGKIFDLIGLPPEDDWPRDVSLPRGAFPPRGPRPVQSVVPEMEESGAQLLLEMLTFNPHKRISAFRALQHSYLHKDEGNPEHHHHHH
T2 sequence (P24385 whole entry, chain 2 of 2): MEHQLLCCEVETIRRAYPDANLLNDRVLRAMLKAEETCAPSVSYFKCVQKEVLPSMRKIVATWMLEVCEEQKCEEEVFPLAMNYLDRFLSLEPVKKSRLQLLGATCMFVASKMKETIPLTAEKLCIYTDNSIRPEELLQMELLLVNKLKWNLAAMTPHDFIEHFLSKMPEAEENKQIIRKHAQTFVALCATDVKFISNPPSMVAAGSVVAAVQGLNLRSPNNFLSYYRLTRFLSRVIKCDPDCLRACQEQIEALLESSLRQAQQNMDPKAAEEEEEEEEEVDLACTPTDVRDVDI

B1: H-His-Ala-Lys-Arg-Arg-Leu-Nva-Phe-NH2 (peptide)
peptide: H-HAKRRL[Nva]F-NH2
SMILES: CCC[C@H](NC(=O)[C@H](CC(C)C)NC(=O)[C@H](CCCNC(=N)N)NC(=O)[C@H](CCCNC(=N)N)NC(=O)[C@H](CCCCN)NC(=O)[C@H](C)NC(=O)[C@@H](N)Cc1c[nH]cn1)C(=O)N[C@@H](Cc1ccccc1)C(N)=O
Relative activity, Kinase Inhibition (CDK2/cyclin A kinase assay, pRb substrate, [ATP] = 100 µM) (CDK2/cyclin A [1]): 0.2 relative to H-His-Ala-Lys-Arg-Arg-Leu-Ile-Phe-NH2 (=1)

H-HGKRRLIF-NH2 [H-His-Gly-Lys-Arg-Arg-Leu-Ile-Phe-NH2]
Relative activity, Kinase Inhibition (CDK2/cyclin A kinase assay, pRb substrate, [ATP] = 100 µM) (CDK2/cyclin A [2]): 0.1 relative to H-His-Ala-Lys-Arg-Arg-Leu-Ile-Phe-NH2 (=1)

HSKRRLFG-NH2 [P21 C-terminius-LFG hybrid HSKRRLFG-NH2]
% Inhibition, cyclin D1/CDK4 kinase (CDK4/Cyclin D1 complex [3]): 42%
% Inhibition, cyclin E/CDK2 kinase (CDK2/Cyclin E complex [4]): 82%
IC50, cyclin E/CDK2 kinase (CDK2/Cyclin E complex [4]): 1.6 µM

H-HAKRRLI[Phe(ol)] [H-His-Ala-Lys-Arg-Arg-Leu-Ile-Pheol]
Relative activity, Kinase Inhibition (CDK2/cyclin A kinase assay, pRb substrate, [ATP] = 100 µM) (CDK2/cyclin A [5]): 0.6 relative to H-His-Ala-Lys-Arg-Arg-Leu-Ile-Phe-NH2 (=1)

KA[Abu]RRLFG-NH2 [P21 N-terminus peptide KAURRLFG-NH2]
% Inhibition, cyclin D1/CDK4 kinase (CDK4/Cyclin D1 complex [3]): 66%
IC50, cyclin D1/CDK4 kinase (CDK4/Cyclin D1 complex [3]): 42 µM
% Inhibition, cyclin E/CDK2 kinase (CDK2/Cyclin E complex [4]): 86%
IC50, cyclin E/CDK2 kinase (CDK2/Cyclin E complex [4]): 0.074 µM

H-HAKRRLF-NH2 [H-His-Ala-Lys-Arg-Arg-Leu-Phe-NH2]
Relative activity, Kinase Inhibition (CDK2/cyclin A kinase assay, pRb substrate, [ATP] = 100 µM) (CDK2/cyclin A [1]): < 0.1 relative to H-His-Ala-Lys-Arg-Arg-Leu-Ile-Phe-NH2 (=1)

H-HSKRRLI[dPse]-OH [H-His-Ser-Lys-Arg-Arg-Leu-Ile-D-Pse-OH]
Relative activity, Kinase Inhibition (CDK2/cyclin A kinase assay, pRb substrate, [ATP] = 100 µM) (CDK2/cyclin A [5]): < 0.1 relative to H-His-Ala-Lys-Arg-Arg-Leu-Ile-Phe-NH2 (=1)

HSKRRLIF-NH2 [p21 (152-159) HSKRRLIF-NH2]
% Inhibition, cyclin D1/CDK4 kinase (CDK4/Cyclin D1 complex [6]): 72%
% Inhibition, cyclin E/CDK2 kinase (CDK2/Cyclin E complex [7]): 80%
IC50, cyclin E/CDK2 kinase, GST-pRb (CDK2/Cyclin E complex [7]): 3.4 µM
% Inhibition, cyclin D1/CDK4 kinase (CDK4/Cyclin D1 complex [3]): 72%
% Inhibition, cyclin E/CDK2 kinase (CDK2/Cyclin E complex [4]): 80%
IC50, cyclin E/CDK2 kinase (CDK2/Cyclin E complex [4]): 3.4 µM

B2: H-His-Ala-Lys-Arg-Arg-Leu-Nle-Phe-NH2 (peptide)
peptide: H-HAKRRL[Nle]F-NH2
SMILES: CCCC[C@H](NC(=O)[C@H](CC(C)C)NC(=O)[C@H](CCCNC(=N)N)NC(=O)[C@H](CCCNC(=N)N)NC(=O)[C@H](CCCCN)NC(=O)[C@H](C)NC(=O)[C@@H](N)Cc1c[nH]cn1)C(=O)N[C@@H](Cc1ccccc1)C(N)=O
Relative activity, Kinase Inhibition (CDK2/cyclin A kinase assay, pRb substrate, [ATP] = 100 µM) (CDK2/cyclin A [1]): 0.4 relative to H-His-Ala-Lys-Arg-Arg-Leu-Ile-Phe-NH2 (=1)

H-HSKRRLI[dPsa]-OH [H-His-Ser-Lys-Arg-Arg-Leu-Ile-D-Psa-OH]
Relative activity, Kinase Inhibition (CDK2/cyclin A kinase assay, pRb substrate, [ATP] = 100 µM) (CDK2/cyclin A [5]): < 0.1 relative to H-His-Ala-Lys-Arg-Arg-Leu-Ile-Phe-NH2 (=1)

KAXRRLIF (U at position 3 (read as Abu); C-terminal carboxamide) [P21 N-terminus-LIF hybrid KAURRLIF-NH2]
% Inhibition, cyclin D1/CDK4 kinase (CDK4/Cyclin D1 complex [3]): 83%
IC50, cyclin D1/CDK4 kinase (CDK4/Cyclin D1 complex [3]): 13 µM
% Inhibition, cyclin E/CDK2 kinase (CDK2/Cyclin E complex [4]): 78%

B3: H-His-Nva-Lys-Arg-Arg-Leu-Ile-Phe-NH2 (peptide)
peptide: H-H[Nva]KRRLIF-NH2
SMILES: CCC[C@H](NC(=O)[C@@H](N)Cc1c[nH]cn1)C(=O)N[C@@H](CCCCN)C(=O)N[C@@H](CCCNC(=N)N)C(=O)N[C@@H](CCCNC(=N)N)C(=O)N[C@@H](CC(C)C)C(=O)N[C@H](C(=O)N[C@@H](Cc1ccccc1)C(N)=O)[C@@H](C)CC
Relative activity, Kinase Inhibition (CDK2/cyclin A kinase assay, pRb substrate, [ATP] = 100 µM) (CDK2/cyclin A [2]): < 0.1 relative to H-His-Ala-Lys-Arg-Arg-Leu-Ile-Phe-NH2 (=1)

H-HSKRRLI[Psa]-OH [H-His-Ser-Lys-Arg-Arg-Leu-Ile-L-Psa-OH]
Relative activity, Kinase Inhibition (CDK2/cyclin A kinase assay, pRb substrate, [ATP] = 100 µM) (CDK2/cyclin A [5]): < 0.1 relative to H-His-Ala-Lys-Arg-Arg-Leu-Ile-Phe-NH2 (=1)

B4: H-His-Ala-Lys-Arg-Arg-Leu-Ile-Dhp-OH (peptide)
peptide: H-HAKRRLI[Dhp]-OH
SMILES: CC[C@H](C)[C@H](NC(=O)[C@H](CC(C)C)NC(=O)[C@H](CCCNC(=N)N)NC(=O)[C@H](CCCNC(=N)N)NC(=O)[C@H](CCCCN)NC(=O)[C@H](C)NC(=O)[C@@H](N)Cc1c[nH]cn1)C(=O)N/C(=C\c1ccccc1)C(=O)O
Relative activity, Kinase Inhibition (CDK2/cyclin A kinase assay, pRb substrate, [ATP] = 100 µM) (CDK2/cyclin A [5]): 3.3 relative to H-His-Ala-Lys-Arg-Arg-Leu-Ile-Phe-NH2 (=1)

H-HAKRRLI[dPse]-OH [H-His-Ala-Lys-Arg-Arg-Leu-Ile-D-Pse-OH]
Relative activity, Kinase Inhibition (CDK2/cyclin A kinase assay, pRb substrate, [ATP] = 100 µM) (CDK2/cyclin A [5]): < 0.1 relative to H-His-Ala-Lys-Arg-Arg-Leu-Ile-Phe-NH2 (=1)

H-HAKRRLVF-NH2 [H-His-Ala-Lys-Arg-Arg-Leu-Val-Phe-NH2]
Relative activity, Kinase Inhibition (CDK2/cyclin A kinase assay, pRb substrate, [ATP] = 100 µM) (CDK2/cyclin A [1]): 0.8 relative to H-His-Ala-Lys-Arg-Arg-Leu-Ile-Phe-NH2 (=1)

B5: H-His-Ala-Lys-Arg-Arg-Leu-Cha-Phe-NH2 (peptide)
peptide: H-HAKRRL[Cha]F-NH2
SMILES: CC(C)C[C@H](NC(=O)[C@H](CCCNC(=N)N)NC(=O)[C@H](CCCNC(=N)N)NC(=O)[C@H](CCCCN)NC(=O)[C@H](C)NC(=O)[C@@H](N)Cc1c[nH]cn1)C(=O)N[C@@H](CC1CCCCC1)C(=O)N[C@@H](Cc1ccccc1)C(N)=O
Relative activity, Kinase Inhibition (CDK2/cyclin A kinase assay, pRb substrate, [ATP] = 100 µM) (CDK2/cyclin A [1]): 0.3 relative to H-His-Ala-Lys-Arg-Arg-Leu-Ile-Phe-NH2 (=1)

H-HAKRRLI[Psa]-OH [H-His-Ala-Lys-Arg-Arg-Leu-Ile-[L-Psa]-OH]
Relative activity, Kinase Inhibition (CDK2/cyclin A kinase assay, pRb substrate, [ATP] = 100 µM) (CDK2/cyclin A [5]): 22 relative to H-His-Ala-Lys-Arg-Arg-Leu-Ile-Phe-NH2 (=1)

H-HAKRRLLF-NH2 [H-His-Ala-Lys-Arg-Arg-Leu-Leu-Phe-NH2]
Relative activity, Kinase Inhibition (CDK2/cyclin A kinase assay, pRb substrate, [ATP] = 100 µM) (CDK2/cyclin A [1]): 1.2 relative to H-His-Ala-Lys-Arg-Arg-Leu-Ile-Phe-NH2 (=1)

H-HAKRRLI[dPsa]-OH [H-His-Ala-Lys-Arg-Arg-Leu-Ile-D-Psa-OH]
Relative activity, Kinase Inhibition (CDK2/cyclin A kinase assay, pRb substrate, [ATP] = 100 µM) (CDK2/cyclin A [5]): < 0.1 relative to H-His-Ala-Lys-Arg-Arg-Leu-Ile-Phe-NH2 (=1)

H-HAKRRLI[Phe(3R-OH)]-OH [H-His-Ala-Lys-Arg-Arg-Leu-Ile-L-Pse-OH]
Relative activity, Kinase Inhibition (CDK2/cyclin A kinase assay, pRb substrate, [ATP] = 100 µM) (CDK2/cyclin A [5]): < 0.1 relative to H-His-Ala-Lys-Arg-Arg-Leu-Ile-Phe-NH2 (=1)

H-HAKRRLFF-NH2 [H-His-Ala-Lys-Arg-Arg-Leu-Phe-Phe-NH2]
Relative activity, Kinase Inhibition (CDK2/cyclin A kinase assay, pRb substrate, [ATP] = 100 µM) (CDK2/cyclin A [1]): 0.4 relative to H-His-Ala-Lys-Arg-Arg-Leu-Ile-Phe-NH2 (=1)

H-HAKRRLAF-NH2 [H-His-Ala-Lys-Arg-Arg-Leu-Ala-Phe-NH2]
Relative activity, Kinase Inhibition (CDK2/cyclin A kinase assay, pRb substrate, [ATP] = 100 µM) (CDK2/cyclin A [1]): 0.3 relative to H-His-Ala-Lys-Arg-Arg-Leu-Ile-Phe-NH2 (=1)

B6: H-His-Abu-Lys-Arg-Arg-Leu-Ile-Phe-NH2 (peptide)
peptide: H-H[Abu]KRRLIF-NH2
SMILES: CC[C@H](NC(=O)[C@@H](N)Cc1c[nH]cn1)C(=O)N[C@@H](CCCCN)C(=O)N[C@@H](CCCNC(=N)N)C(=O)N[C@@H](CCCNC(=N)N)C(=O)N[C@@H](CC(C)C)C(=O)N[C@H](C(=O)N[C@@H](Cc1ccccc1)C(N)=O)[C@@H](C)CC
Relative activity, Kinase Inhibition (CDK2/cyclin A kinase assay, pRb substrate, [ATP] = 100 µM) (CDK2/cyclin A [2]): 5 relative to H-His-Ala-Lys-Arg-Arg-Leu-Ile-Phe-NH2 (=1)

B7: H-His-Ala-Lys-Arg-Arg-Leu-1Nap-Phe-NH2 (peptide)
peptide: H-HAKRRL[1Nal]F-NH2
SMILES: CC(C)C[C@H](NC(=O)[C@H](CCCNC(=N)N)NC(=O)[C@H](CCCNC(=N)N)NC(=O)[C@H](CCCCN)NC(=O)[C@H](C)NC(=O)[C@@H](N)Cc1c[nH]cn1)C(=O)N[C@@H](Cc1cccc2ccccc12)C(=O)N[C@@H](Cc1ccccc1)C(N)=O
Relative activity, Kinase Inhibition (CDK2/cyclin A kinase assay, pRb substrate, [ATP] = 100 µM) (CDK2/cyclin A [1]): 0.5 relative to H-His-Ala-Lys-Arg-Arg-Leu-Ile-Phe-NH2 (=1)
